Test [1] addresses T1, GPR133 (ADGRD1) C-terminal fragment with C-terminal Twin-Strep-tag, cleaved from C-terminally … (human).
T1 construct: also called CTF; GPR133 CTF; source: HEK293T, transfected, in whole-cell lysate or subcellular fractions; not shown: Twin-Strep, C-terminal, kept
T1 chain: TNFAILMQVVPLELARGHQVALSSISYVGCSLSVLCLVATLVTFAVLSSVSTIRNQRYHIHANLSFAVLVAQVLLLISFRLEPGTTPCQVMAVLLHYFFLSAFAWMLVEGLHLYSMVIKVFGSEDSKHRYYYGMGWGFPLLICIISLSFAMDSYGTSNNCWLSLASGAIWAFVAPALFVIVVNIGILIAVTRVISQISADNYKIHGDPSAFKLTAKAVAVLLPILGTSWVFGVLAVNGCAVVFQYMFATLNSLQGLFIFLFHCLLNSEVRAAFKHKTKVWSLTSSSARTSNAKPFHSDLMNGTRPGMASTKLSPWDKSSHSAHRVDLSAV
Nature of the test: pull-down; C-terminal Twin-Strep tag purification on Strep-Tactin from the Nuc/ER/Golgi subcellular fraction of HEK293T cells (1% DDM); Western blot, densitometry of NTF/CTF. To be noted: partners not purified.

For test [2], the target named is T1, GPR133 (ADGRD1) C-terminal fragment …. Description: pull-down; C-terminal Twin-Strep tag purification on Strep-Tactin from the plasma membrane subcellular fraction of HEK293T cells (1% DDM); Western blot, densitometry of NTF/CTF. To be noted: partners not purified. In general terms: A western blot detects proteins with antibodies after separation by electrophoresis.

B1: GPR133 (ADGRD1) N-terminal fragment, cleaved from C-terminally Twin-Strep-tagged WT GPR133 (domain or fragment, human)
chain: VYSRSQDHPGFQVLASASHYWPLENVDGIHELQDTTGDIVEGKVNKGIYLKEEKGVTLLYYGRYNSSCISKPEQCGPEGVTFSFFWKTQGEQSRPIPSAYGGQVISNGFKVCSSGGRGSVELYTRDNSMTWEASFSPPGPYWTHVLFTWKSKEGLKVYVNGTLSTSDPSGKVSRDYGESNVNLVIGSEQDQAKCYENGAFDEFIIWERALTPDEIAMYFTAAIGKHALLSSTLPSLFMTSTASPVMPTDAYHPIITNLTEERKTFQSPGVILSYLQNVSLSLPSKSLSEQTALNLTKTFLKAVGEILLLPGWIALSEDSAVVLSLIDTIDTVMGHVSSNLHGSTPQVTVEGSSAMAEFSVAKILPKTVNSSHYRFPAHGQSFIQIPHEAFHRHAWSTVVGLLYHSMHYYLNNIWPAHTKIAEAMHHQDCLLFATSHLISLEVSPPPTLSQNLSGSPLITVHLKHRLTRKQHSEATNSSNRVFVYCAFLDFSSGEGVWSNHGCALTRGNLTYSVCRCTHL
modifications: glycosylated (immaturely and maturely glycosylated forms; nine N-linked glycosylation sites predicted within the NTF)
notes: signal peptide in the construct; codon-optimized cDNA of WT human GPR133 from Axxam; also called NTF; GPR133 NTF; source: HEK293T, transfected, in whole-cell lysate or subcellular fractions
Regarding B1, the “NTF/CTF ratio in the elution” value worked out at 1 in test [1] and 0.17 in test [2].
